No end group written: not given here.
Experiments:
[1] = system: TLR6 TMD (functional ToxR chimera); experiment: Dominant-negative (heterotypic) ToxR assay, TLR6 as dominant phenotype; type: cell-based, E. coli; conditions: Miller units normalized to poly-Leu* = 1 and corrected for expression, lower = stronger interaction, N in table
Text: Next, we investigated heterotypic interactions of the TLRs. We specifically studied TLR2, TLR1, and TLR6 because they are cell surface expressed receptors known to form functional heterodimers. To determine the ability of these three cell surface TLRs to have heterotypic interactions within its family, we studied the ability of the TLR1, TLR2, and TLR6 TMDs to interact with the TLR receptors also expressed at the cell surface; namely, TLR1, TLR2, TLR4, TLR5, TLR6, and TLR10. We monitored these interactions using a dominant-negative ToxR assay (Fig. S1B) which works by having a second TMD expressed with a non-functional ToxR* intracellular domain. This ToxR* domain is incapable of binding the ctx promoter making any interactions with this second expressed TMD unable to produce the reporter enzyme. As such, any interaction between the functional ToxR and non-functional ToxR* TMDs will result in a reduction in signal output.
Figure 3 Cell- Surface Toll-like Recptor Heterotypic Interactions. (A) A dominant-negative ToxR assay was used to study heterotypic interactions of the cell-surface TLRs. Two TLR TMDs were encoded in the FHK12 E.coli reporter strain, one with a functional ToxR domain (dominant phenotype) and one with a nonfunctional ToxR* domain (negative phenotype). Interaction between the two different TMDs leads to a reduction in signal from that seen for homotypic interactions. The TMDs for GpA, TLR1, TLR2, and TLR6 were used with the functional ToxR domain while TMDs for poly-Leucine, TMD5, integrin αIIb, TLR1, TLR2, TLR4, TLR5, TLR6, and TLR10 were used with the nonfunctional ToxR* domain. Interactions were most prominent for the TLRs known to have heterotypic interactions – TLR2-TLR1 and TLR2-TLR6. […] We also saw interaction with the same TMD further validating the homotypic interactions. […] Each dominant phenotype was done in 3 technical replicates with each negative phenotype and >6 measurements made for each replicate. Error bars depict the standard error of the mean (n- Tables S3, S5, S7, S9). Western blots staining for MBP were performed to monitor expression levels of the constructs with the upper band being functional ToxR chimeras and the lower band being nonfunctional ToxR* chimeras – (B) GpA, (C) TLR1, (D) TLR2, and (E) TLR6. Significant differences for the same dominant phenotype were determined by use of the Tukey-Kramer test.
For heterotypic interactions one plasmid containing a functional ToxR domain (200 ng) and a second plasmid containing a non-functional ToxR* domain (200 ng) were co-transformed into chemically competent FHK12 E. coli (400 µL) by incubating on ice for 30 min, heat shock at 42°C for 90 s, incubation on ice for 2 min, and addition of SOC media (1600 µL) followed by incubation with shaking for 1 h at 37°C. This transformation mixture (50 µL) was then used to spread LB-agar plates containing cholaramphenicol (30 µg/mL), kanamycin (33 µg/mL), and ampicillin (100 µg/mL) and grown overnight at 37°C. Single colonies were selected from the plates and grown in 5 mL LB media containing cholaramphenicol (30 µg/mL), kanamycin (33 µg/mL), ampicillin (100 µg/mL), and arabinose (0.0025%) overnight (16–20 h) with shaking at 37°C. Analysis of activity was monitored as described in homotypic ToxR assays. Western blotting was done in the same manner as the homotypic ToxR assay with one band appearing for the functional ToxR construct and a second band for the nonfunctional ToxR* construct. Data were normalized to poly-Leu* Miller Units and corrected for varying protein expression levels using ImageJ (NIH) as previously reported.

[2] = Circular dichroism, helical content by CDNN; type: physicochemical; conditions: CD, CDNN analysis; 5-10 µM peptide, 10 mM C14-betaine micelles, 20 mM HEPES pH 7.4, 25°C, average of 9 scans
Experimental: Figure 4 Circular Dichroism Spectra of TLR1, TLR2, and TLR6 Synthetic TMD Peptides. Far-UV spectra of the synthetic TMD peptides at concentrations ranging from 5–10 µM in the presence of 10 mM C14-betaine detergent micelles. Spectra were collected at 25°C with a step size of 1 nm and are the average of 9 scans. All peptides had helical content >99% (Table S11) as determined using CDNN [63].
CD measurements were performed on a ChirascanPlus spectrometer (Applied Photophysics) using a 1.0 mm path length quartz cuvette. Peptides and C14-Betaine (3-(N,N-Dimethylmyristylammonio)propanesulfonate: Sigma) were co-dissolved in 2,2,2-trifluoroethanol. The organic solvent was removed by drying to a thin film using N2 and further dried overnight under reduced pressure to remove all traces of TFE. Samples were resusupended in a 20 mM HEPES buffer, pH 7.4, yielding a final C14-Betaine concentration of 10 mM. Peptide concentrations were determined using Beer-Lambert law with coumarin absorbance at 400 nm using ε400 of 39,300 M^−1 cm^−1 [62] and FITC absorbance at 495 nm using ε495 of 68,000 M^−1 cm^−1 (Invitrogen). Peptides were prepared such that final concentrations were in the 5–10 µM range. All CD spectra were measured at 25°C with a step size of 1 nm and are reported as the average of 9 scans. Data were not collected below 200 nm due to the high voltage and background noise from the C14-Betaine buffer. Helical content was determined using CDNN [63].

Substance	Mean TLR6-TMD* heterotypic interaction (ToxR signal) [1]	Helix content, 200-260 nm [2]	Helix content, 205-260 nm [2]	Helix content, 210-260 nm [2]
TLR6*: TLR6 TMD chimera with nonfunctional ToxR* domain (negative phenotype) (GNRASITLLIVTIGATMLVLAVTVTSLCIYLGSLIN; also: fused to non-functional ToxR* (S87H) and maltose binding protein, ends not given here)	0.2564	99.90%	100.00%	100.00%
TLR2*: TLR2 TMD chimera with nonfunctional ToxR* domain (negative phenotype) (GNRASALVSGMCCALFLLILLTGVLCGSLIN; cysteine pairing not given here; also: fused to non-functional ToxR* (S87H) and maltose binding protein, ends not given here)	0.2802	99.80%	99.90%	99.90%
TLR1*: TLR1 TMD chimera with nonfunctional ToxR* domain (negative phenotype) (GNRASITLLIVTIVATMLVLAVTVTSLCSYLGSLIN; also: fused to non-functional ToxR* (S87H) and maltose binding protein, ends not given here)	0.3316	99.70%	99.90%	99.90%

Reference: publication PMC3498381, “Isolated Toll-like Receptor Transmembrane Domains Are Capable of Oligomerization” (PLoS ONE, 2012)
